Measured values as given in IntAct's records for PubMed 18940611.

B1: Programmed cell death 6-interacting protein (Homo sapiens), Q8WUM4 (parent)
chain: MATFISVQLKKTSEVDLAKPLVKFIQQTYPSGGEEQAQYCRAAEELSKLRRAAVGRPLDKHEGALETLLRYYDQICSIEPKFPFSENQICLTFTWKDAFDKGSLFGGSVKLALASLGYEKSCVLFNCAALASQIAAEQNLDNDEGLKIAAKHYQFASGAFLHIKETVLSALSREPTVDISPDTVGTLSLIMLAQAQEVFFLKATRDKMKDAIIAKLANQAADYFGDAFKQCQYKDTLPKEVFPVLAAKHCIMQANAEYHQSILAKQQKKFGEEIARLQHAAELIKTVASRYDEYVNVKDFSDKINRALAAAKKDNDFIYHDRVPDLKDLDPIGKATLVKSTPVNVPISQKFTDLFEKMVPVSVQQSLAAYNQRKADLVNRSIAQMREATTLANGVLASLNLPAAIEDVSGDTVPQSILTKSRSVIEQGGIQTVDQLIKELPELLQRNREILDESLRLLDEEEATDNDLRAKFKERWQRTPSNELYKPLRAEGTNFRTVLDKAVQADGQVKECYQSHRDTIVLLCKPEPELNAAIPSANPAKTMQGSEVVNVLKSLLSNLDEVKKEREGLENDLKSVNFDMTSKFLTALAQDGVINEEALSVTELDRVYGGLTTKVQESLKKQEGLLKNIQVSHQEFSKMKQSNNEANLREEVLKNLATAYDNFVELVANLKEGTKFYNELTEILVRFQNKCSDIVFARKTERDELLKDLQQSIAREPSAPSIPTPAYQSSPAGGHAPTPPTPAPRTMPPTKPQPPARPPPPVLPANRAPSATAPSPVGAGTAAPAPSQTPGSAPPPQAQGPPYPTYPGYPGYCQMPMPMGYNPYAYGQYNMPYPPVYHQSPGQAPYPGPQQPSYPFPQPPQQSYYPQQ
partner: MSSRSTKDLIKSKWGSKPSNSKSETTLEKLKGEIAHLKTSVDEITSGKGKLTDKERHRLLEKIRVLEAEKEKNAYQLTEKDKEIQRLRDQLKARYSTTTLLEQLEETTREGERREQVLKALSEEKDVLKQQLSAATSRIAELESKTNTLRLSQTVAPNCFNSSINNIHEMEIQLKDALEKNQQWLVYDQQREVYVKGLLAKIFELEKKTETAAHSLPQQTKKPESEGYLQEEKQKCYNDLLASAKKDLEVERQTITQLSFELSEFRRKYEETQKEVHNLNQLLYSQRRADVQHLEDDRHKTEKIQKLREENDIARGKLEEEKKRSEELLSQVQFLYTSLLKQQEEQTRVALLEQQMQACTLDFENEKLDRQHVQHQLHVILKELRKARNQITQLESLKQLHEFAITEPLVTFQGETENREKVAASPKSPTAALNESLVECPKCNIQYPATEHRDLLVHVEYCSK
B2: Programmed cell death protein 6 (Homo sapiens), O75340 (parent)
chain: MAAYSYRPGPGAGPGPAAGAALPDQSFLWNVFQRVDKDRSGVISDTELQQALSNGTWTPFNPVTVRSIISMFDRENKAGVNFSEFTGVWKYITDWQNVFRTYDRDNSGMIDKNELKQALSGFGYRLSDQFHDILIRKFDRQGRGQIAFDDFIQGCIVLQRLTDIFRRYDTDQDGWIQVSYEQYLSMVFSIV
B3: Programmed cell death 6-interacting protein (Homo sapiens), Q8WUM4 (parent)
chain: B1 chain

Variants of: B1
Details: with cep55_human CEP55, Q53EZ4

Variant | effect of a mutation on the interaction
P802A | disrupting interaction

Variants of: B2
Details: with pdc6i_human PDCD6IP

Variant | effect of a mutation on the interaction
Y180A | disrupting interaction
Y124A | disrupting interaction
W95A | disrupting interaction
Y91A | disrupting interaction
D169A | disrupting interaction
R125A | disrupting interaction

Variants of: B3
Details: with pdcd6_human PDCD6, O75340

Variant | effect of a mutation on the interaction
P802A | disrupting interaction
P804A | disrupting interaction
Y803A | disrupting interaction

Variants of: B3
Details: with pdcd6_human PDCD6, O75340
Remark: another data set of the same source

Variant | effect of a mutation on the interaction
P802A | decreasing interaction
P804A | decreasing interaction
Y803A | decreasing interaction
